What was measured:
CEP1 [1] = target: T1, CEP1 (X at 6 and 12 = citrulline; biotin-conjugated for SPR and Luminex); assay: SPR (Biacore 2000), biotinylated CEP1 on a streptavidin chip, Fab as analyte up to about 3400 nM; plot of RU against concentration; REP1 channel as reference per the legend
T1 construct: CKIHAXEIFDSXGNPTVECK; derived from alpha-enolase; also called CEPI; citrullinated alpha-enolase peptide
T1 peptide: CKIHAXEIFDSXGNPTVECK
Procedure: (§1) SPR sensorgrams of chimeric E4NG Fab fragment (A), E4 (B), F3(C), D10 (D), and B2 (E) binding to immobilized CEP1. Response Units (R.U.) reflect the value of subtracting […]. A series of analyte concentrations were tested. The binding of E4NG (F) and F3 (G) to citrullinated Histone2A peptide were analyzed in a similar way as shown in (A)-(E).
(§2) Surface plasmon resonance analysis. Binding of peptides to the given antibody was analyzed by SPR using a Biacore 2000 biosensor at 25° C. Briefly, the biotin-conjugated peptide was coupled to an […] by streptavidin binding. Then the Fab fragment or full-length antibody was diluted in PBS-P running buffer (20 mM phosphate buffer, 2.7 mM KCl, 137 mM NaCl and 0.05% Surfactant P20) and injected at in a series of concentrations. Data processing and analysis were performed using Biacore 2000 evaluation software.

CEP1 [2] = target: T1, CEP1; assay: SPR, CEP1 immobilised
Procedure: as §2

CEP1 [3] = target: T1, CEP1; assay: SPR (Biacore 2000), biotinylated CEP1 on a streptavidin chip, full antibody as analyte up to 200 nM; plot of RU against concentration; REP1 channel as reference per the legend; the legend says only E4, paragraph 117 ties the CEP1 Kd to E4NG
Procedure: as §1, §2

B1: chimeric E4NG Fab fragment (murine IgG2b constant region) (Fab)
heavy: QVQLEESGPGLVRPSETLSLSCTVSGFPMSESYFWGWIRQSPGKGLEWLGSVIHTGTTYYRPSLESRLTIAMDPSKNQVSLSLTSVTVADSAMYYCVRIRGGSSNWLDPWGPGIVVTASS
light: QSVWTQPPSVSAAPGQKVTISCSGDDSILRSAFVSWYQQVPGSAPKLVIFDDRQRPSGIPARFSGSNSGTTATLDIAGLQRGDEADYYCAAWNGRLSAFVFGSGTKLTVLGQPKSSPSVTLFPPSSEELETNKATLVCTITDFYPGVVTVDWKVDGTPVTQGMETTQPSKQSNNKYMASSYLTLTARAWERHSSYSCQVTHEGHTVEKSLSRADCS
notes: domain: constant region; Fab made with the ImmunoPure Fab Preparation Kit (papain); also called E4Fab; mE4Fab; not shown: part of the mouse IgG2b constant region (UniProtKB P01867) left in the Fab after cleavage
**Q.** How did the Kd (CEP1 [1]) turn out when B1 was run?
**A.** The Kd was 2300 nM.

B2: chimeric E4NG (antibody, mouse IgG2b)
heavy: QVQLEESGPGLVRPSETLSLSCTVSGFPMSESYFWGWIRQSPGKGLEWLGSVIHTGTTYYRPSLESRLTIAMDPSKNQVSLSLTSVTVADSAMYYCVRIRGGSSNWLDPWGPGIVVTASS
light: QSVWTQPPSVSAAPGQKVTISCSGDDSILRSAFVSWYQQVPGSAPKLVIFDDRQRPSGIPARFSGSNSGTTATLDIAGLQRGDEADYYCAAWNGRLSAFVFGSGTKLTVLGQPKSSPSVTLFPPSSEELETNKATLVCTITDFYPGVVTVDWKVDGTPVTQGMETTQPSKQSNNKYMASSYLTLTARAWERHSSYSCQVTHEGHTVEKSLSRADCS
notes: domain: constant region; Human E4 variable regions on mouse IgG2b/lambda-1 constant regions; also called chimeric non-glycosylated (NG) E4; mE4; not shown: mouse IgG2b heavy chain constant region, UniProtKB P01867
**Q.** For B2, which Kd (CEP1 [2]) is on record?
**A.** The Kd was 0.25 nM.

**Q.** And the Kd (CEP1 [3])?
**A.** The Kd was 250 nM.
